These results are taken from the supplement of paper PMC10724198.

± gives the standard deviation of the averaged measurements.
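Further: PSI is a weighted mean of sequencing reads over stability bins, variants kept only with over 10 reads, mCherry proximal and sfGFP distal, peptide attached via GGGS linker.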

In this data set the test system is Saccharomyces cerevisiae. Kind of data set: protein stability index of tFT-peptide fusion (C-terminal peptide) (PSI (0-1 scale)); higher = more stable (slower turnover). To be noted: genetic background: wild type; temperature: 30 C. As to the method:
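Multiplexed protein stability (MPS) profiling in S. cerevisiae. Random 12-aa peptides (tFT-X12 library) are fused to the C-terminus of a sfGFP-mCherry tandem fluorescent timer, after mCherry and a GGGS linker. Cells are FACS-sorted into 8 mCherry/sfGFP bins and deep-sequenced. The protein stability index (PSI) is the read-weighted bin average, scaled from 0 (unstable) to 1 (stable). Only peptides with >10 reads are reported; cells were grown at 30 °C in SC-His with glucose.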
In turn, ERCLRYRTVVDW yielded a protein stability index of 0.632 ± 0.063.

Take ERGACPGLRQLN: the protein stability index was found to be 0.649 ± 0.015.

Sequence ERGLATGRGGWV yielded a protein stability index of 0.733 ± 0.064.

As to ERGSRKKKDRRR, the protein stability index was 0.639 ± 0.01.

In the case of ERIGAREQPSAT, the protein stability index was found to be 0.7075 ± 0.0056.

ERKKKNPSTTRR displayed a protein stability index of 0.684 ± 0.0086.

ERNEERKATTRS: the protein stability index worked out at 0.726 ± 0.067.

ERNKQNVTQKVK showed a protein stability index of 0.723 ± 0.028.

Sequence ERPIRPQCVHRM registered a protein stability index of 0.73 ± 0.015.

ERPRRDTTVSDT displayed a protein stability index of 0.653 ± 0.0083.

ERQSMNKRERNP had a protein stability index of 0.683 ± 0.023.

Take ERRKQDERKRRV: the protein stability index came to 0.7059 ± 0.00075.

Consider ERRSGGHCRKSG, for which the protein stability index is 0.685 ± 0.036.

On to ERTKKKRRKEKH, for which the protein stability index is 0.663 ± 0.011.

ERVWRAALAPVV showed a protein stability index of 0.618 ± 0.045.

ERWGGSGGGCAA yielded a protein stability index of 0.67 ± 0.051.

ESFFHIKPVLYI: the protein stability index is 0.647 ± 0.058.

Regarding ESFGGKAGRDSM, the protein stability index worked out at 0.772 ± 0.049.

ESFLLSLNLLSY: the protein stability index was found to be 0.6155 ± 0.0037.

ESNRHSHVVGPA came in with a protein stability index of 0.683 ± 0.013.

In turn, ESSPQPIPSRLA gave a protein stability index of 0.707 ± 0.016.

Turning to ESYRTYNSIQVY, the protein stability index is 0.518 ± 0.015.

In turn, ETNSSSEFPLNF returned a protein stability index of 0.755 ± 0.0089.

The sequence ETRIRGVMPRAY gave a protein stability index of 0.659 ± 0.014.

Turning to ETWRRIDRLFGS, the protein stability index came to 0.619 ± 0.058.

As for EVAVELIGAPGL, the protein stability index came out at 0.699 ± 0.1.

As to EVDRRRSVITLP, the protein stability index was found to be 0.668 ± 0.033.

In the case of EVEGGLSFSARG, the protein stability index was 0.706 ± 0.074.

Take EVEINGRLVGKM: the protein stability index came out at 0.646 ± 0.097.

The sequence EVKDDSKVVVYV gave a protein stability index of 0.666 ± 0.022.

EVKERGRGCREG showed a protein stability index of 0.659 ± 0.03.

Regarding EVRRGVGGAWEG, the protein stability index came to 0.648 ± 0.011.

With EVSGGNRYWCGV, the protein stability index turned out to be 0.719 ± 0.022.

In turn, EVSHLGLVCGHL returned a protein stability index of 0.653 ± 0.081.

In turn, EVSSGGQRVGRS gave a protein stability index of 0.763 ± 0.018.

In turn, EVWGSVETSCAS yielded a protein stability index of 0.739 ± 0.17.

For EWGRSGVRCRLG, the protein stability index is 0.571 ± 0.052.

EWRWPTELNRKG came in with a protein stability index of 0.75 ± 0.051.

Regarding EYAVLLFPHHPG, the protein stability index was determined as 0.623 ± 0.041.

EYGSWIRTASRV gave a protein stability index of 0.726 ± 0.016.

EYKKKKTKANDT came in with a protein stability index of 0.6944 ± 0.0015.

The sequence EYRPPVPPPFPP came in with a protein stability index of 0.579 ± 0.033.

Sequence FAAGIMWQSGLK showed a protein stability index of 0.657 ± 0.019.

FAEWVRFWPGLV displayed a protein stability index of 0.6682 ± 0.0064.

FAHRVVCFCVFS returned a protein stability index of 0.505 ± 0.038.

The sequence FALAVPLDPWSS had a protein stability index of 0.737 ± 0.065.

For FAQRRGPAALNI, the protein stability index stood at 0.70492 ± 0.00052.

The sequence FARELGNLNVEK registered a protein stability index of 0.761 ± 0.056.

With FASPPPLPLPPH, the protein stability index was 0.694 ± 0.02.

Sequence FCFHPLTGKLSG yielded a protein stability index of 0.6536 ± 0.0029.

Take FCFRFISCPLHF: the protein stability index is 0.549 ± 0.047.

For FCGLVIRFSEKV, the protein stability index was 0.653 ± 0.017.

As for FCLFTYIPSSCL, the protein stability index was found to be 0.664 ± 0.035.

With FCLGSFMFEGGR, the protein stability index was determined as 0.723 ± 0.032.

Sequence FCPPLSFPPPLS came in with a protein stability index of 0.718 ± 0.13.

FCRCNYLYRIPK: the protein stability index was 0.6615 ± 0.0026.

For the sequence FCRVCLAFLSGL, the protein stability index was 0.781 ± 0.22.

Take FCRYSRAWKDFV: the protein stability index is 0.737 ± 0.087.

In turn, FCSLLLFRFVVL came in with a protein stability index of 0.517 ± 0.015.

The sequence FCSPLPSSPPLP had a protein stability index of 0.658 ± 0.028.

For FCSRVGFVFLRL, the protein stability index amounted to 0.489 ± 0.024.

With FCSSVSFPPAPL, the protein stability index amounted to 0.642 ± 0.035.

Consider FDFFLPFLCSSL, for which the protein stability index was found to be 0.827 ± 0.2.

Sequence FDMYACCQRGAV yielded a protein stability index of 0.6639 ± 0.0027.
